From EP4703384A1 (Chia Tai Tianqing Pharmaceutical Group Co., Ltd., dated 2026)
Substitutions are numbered along the chain they refer to.

T1: monkey GPRC5D (monkey, UniProt Q9NZD1 1-343 (human entry))
T1 construct: Full length, on stably transfected CHO-K1 cells; also called cynoGPRC5D; CHO-K1-cynoGPRC5D
T1 chain: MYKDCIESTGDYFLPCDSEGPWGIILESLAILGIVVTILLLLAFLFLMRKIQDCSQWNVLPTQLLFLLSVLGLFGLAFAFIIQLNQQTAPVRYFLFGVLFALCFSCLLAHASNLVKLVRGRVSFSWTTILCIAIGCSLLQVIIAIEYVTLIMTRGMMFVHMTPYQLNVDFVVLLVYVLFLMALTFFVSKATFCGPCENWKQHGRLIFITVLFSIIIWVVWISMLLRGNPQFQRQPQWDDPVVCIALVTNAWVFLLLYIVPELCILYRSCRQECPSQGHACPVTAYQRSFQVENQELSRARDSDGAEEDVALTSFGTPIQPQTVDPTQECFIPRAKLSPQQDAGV

T2: mouse GPRC5D (mouse, UniProt Q9JIL6 1-344)
T2 construct: Full length, on stably transfected CHO-K1 cells; also called murineGPRC5D; CHO-K1-murineGPRC5D
T2 sequence: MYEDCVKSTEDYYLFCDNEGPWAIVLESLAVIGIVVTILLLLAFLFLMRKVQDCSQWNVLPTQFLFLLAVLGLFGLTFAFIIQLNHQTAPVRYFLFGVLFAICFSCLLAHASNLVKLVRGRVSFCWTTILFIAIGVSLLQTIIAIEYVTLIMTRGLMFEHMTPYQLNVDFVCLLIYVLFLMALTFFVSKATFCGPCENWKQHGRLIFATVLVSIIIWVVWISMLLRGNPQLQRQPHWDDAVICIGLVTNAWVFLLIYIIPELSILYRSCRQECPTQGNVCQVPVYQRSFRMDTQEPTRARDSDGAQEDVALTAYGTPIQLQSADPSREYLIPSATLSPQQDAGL

B1: Talquetamab (bispecific antibody, human IgG4 S228P, kappa, lambda, F234A L235A)
heavy 1: not shown
light 1: DIQMTQSPSSLSASVGDRVTITCKASQNVATHVGWYQQKPGKAPKRLIYSASYRYSGVPSRFSGSGSGTEFTLTISNLQPEDFATYYCQQYNRYPYTFGQGTKLEIKRTVAAPSVFIFPPSDEQLKSGTASVVCLLNNFYPREAKVQWKVDNALQSGNSQESVTEQDSKDSTYSLSSTLTLSKADYEKHKVYACEVTHQGLSSPVTKSFNRGEC
heavy 2: EVQLVESGGGLVQPGGSLRLSCAASGFTFNTYAMNWVRQAPGKGLEWVARIRSKYNNYATYYAASVKGRFTISRDDSKNSLYLQMNSLKTEDTAVYYCARHGNFGNSYVSWFAYWGQGTLVTVSSASTKGPSVFPLAPCSRSTSESTAALGCLVKDYFPEPVTVSWNSGALTSGVHTFPAVLQSSGLYSLSSVVTVPSSSLGTKTYTCNVDHKPSNTKVDKRVESKYGPPCPPCPAPEAAGGPSVFLFPPKPKDTLMISRTPEVTCVVVDVSQEDPEVQFNWYVDGVEVHNAKTKPREEQFNSTYRVVSVLTVLHQDWLNGKEYKCKVSNKGLPSSIEKTISKAKGQPREPQVYTLPPSQEEMTKNQVSLTCLVKGFYPSDIAVEWESNGQPENNYKTTPPVLDSDGSFLLYSKLTVDKSRWQEGNVFSCSVMHEALHNHYTQKSLSLSLGK
light 2: QTVVTQEPSLTVSPGGTVTLTCRSSTGAVTTSNYANWVQQKPGQAPRGLIGGTNKRAPGTPARFSGSLLGGKAALTLSGVQPEDEAEYYCALWYSNLWVFGGGTKLTVLGQPKAAPSVTLFPPSSEELQANKATLVCLISDFYPGAVTVAWKADSSPVKAGVETTTPSKQSNNKYAASSYLSLTPEQWKSHRSYSCQVTHEGSTVEKTVAPTECS
notes: Four polypeptide chains; also called benchmark; BM
B2: Chi-89 (antibody, human IgG1, kappa, V domains shown)
VH: EVQLVESGGDLVKPGGSLKLSCAASGFTFSSYGMSWVRQTPDKRLEWVATISSGGSYTYYPDSVKGRFTFSRDNAKNTLYLQMSSLKSEDTAMYYCVRQALRYHMDSWGQGTSVTVSS
VL: DIVMTQSQKFMSTSVGDRVSVTCKASQNVGTNVAWYQQKPGQSPKALIYSASYRYSGVPDRFTGSGSGTDFTLTISNVQSEDLADFFCQQYYSYPWTFGGGTKLEIKR
notes: Human-mouse chimeric antibody, human IgG1 heavy chain constant region and Kappa light chain constant region; also called chimeric antibody Chi-89
B3: Chi-105 (antibody, human IgG1, kappa, V domains shown)
VH: EVQLQQSGPELVKPGASVKMSCKASGYTFTDYYMNWVKQSHGKSLEWIGYIYPNNGGTGYNQRFKGKATLTADKSSSTAYMELRSLTSEDSAVYYCARWGGTRLGYYAMDYWGQGTSVTVSS
VL: B2 VL with A34V, A46L, S50W, Y53T, Y55H, S56T, F86Y, Y92S, S93R, W96Y
notes: Human-mouse chimeric antibody, human IgG1 heavy chain constant region and Kappa light chain constant region
B4: Chi-128 (antibody, human IgG1, kappa, V domains shown)
VH: DVQLVESGGGLVQPGGSRKVSCAASGFTFSSFGMHWVRQAPEKGLEWVAYISRGSSTIYYADTVKGRFTISRDNPKNTLFLQMTSLRSEDTAMYYCARSGYGSSSYYFDYWGQGTTLTVSS
VL: ENVLTQSPAIMSASPREKVTMTCRASSSIRSSYLHWYQQKSGASPKLWIYSTSNLASGVPARFSGSGSGTSYSLTISSVEAEDAATYYCQQFSGYPLTFGGGTKLEIKR
notes: as for B3
B5: Chi-169 (antibody, human IgG1, kappa, V domains shown)
VH: EVKLVESGGGLVKPGASLKLSCAASGFTFSNYGMSWVRQTSDKRLEWVASISSGGGRIYYPDNVKGRFTISRENAKNTLYLQMSSLKSEDTALYYCTRHAMDNWGQGTSVIVSS
VL: QIVLTQSPAIMSASPGEKVTMTCSASSSVSNMYWYQQKSGTSPKRWIYDTSKLASGVPARFSGSGSGTSYSLTISSMEAEDASTYYCQQWSSNPLTFGAGTTLELKR
notes: Human-mouse chimeric antibody, human IgG1 heavy chain constant region and Kappa light chain constant region; also called chimeric antibody Chi-169
B6: Chi-131 (antibody, human IgG1, kappa, V domains shown)
VH: EVQLQQSGPELVKPGASVKMSCKASGYTFTNYVMHWVKQKPGQGLEWIGYFNPYNDGTNYNEKFKGKATLTSDKSSNTAYMELSSLTSEDSAVYYCARGGVRRYFDVWGAGTTVTVSS
VL: DIQMTQSPSSLSASLGERVSLTCRASQDIGSNLNWLQLGPDGTIKRLIYATFSLDSGVPKRFSGSRSGSDYSLTISSLESEDFVDYYCQQYANFPPTFGGGTKLEIKR
notes: Human-mouse chimeric antibody, human IgG1 heavy chain constant region and Kappa light chain constant region; also called chimeric antibody Chi-131
B7: hu128-v1 (antibody, human IgG1, kappa, V domains shown)
VH: B4 VH with D1E, K19R, E42G, P75A, T78S, F80Y, T84N, S88A, M93V, L117V
VL: EIVLTQSPATLSASPGERATMSCRASSSIRSSYLHWYQQKPGQSPRLWIYSTSNLASGVPARFSGSGSGTDYTLTISSLEPEDAAVYYCQQFSGYPLTFGGGTKVEIKR
B8: hu131-v2 (antibody, human IgG1, kappa, V domains shown)
VH: B6 VH with Q5V, P9A, L11V, K40A, K67R, K74T, S76A, T87R, S91T, A110Q
VL: DIQMTQSPSSLSASVGDRVTITCRASQDIGSNLNWLQLGPGGAIKRLIYATFSLDSGVPSRFSGSRSGSDYTLTISSLQPEDFVDYYCQQYANFPPTFGGGTKVEIKR
notes: Humanized antibody of Chi-131
B9: hu131-v1 (antibody, human IgG1, kappa, V domains shown)
VH: EVQLVQSGAEVVKPGASVKMSCKASGYTFTNYVMHWVKQAPGQGLEWMGYFNPYNDGTNYNEKFKGRVTLTSDTSANTAYMELSSLRSEDTAVYYCARGGVRRYFDVWGQGTTVTVSS
VL: B8 VL
notes: Humanized antibody of Chi-131
B10: hu131-v4 (antibody, human IgG1, kappa, V domains shown)
VH: B9 VH with M48I, D56E, V68A
VL: B8 VL
notes: Humanized antibody of Chi-131
B11: hu131-v3 (antibody, human IgG1, kappa, V domains shown)
VH: B9 VH with M48I, G57A, V68A
VL: B8 VL
notes: Humanized antibody of Chi-131

biological target: T3, T cell surface CD3 (human, UniProt P07766 23-207; P04234 22-171; P09693 23-182); experiment: cell-based or functional assay
T3 sequence (P07766 23-207 limits assumed, chain 1 of 3): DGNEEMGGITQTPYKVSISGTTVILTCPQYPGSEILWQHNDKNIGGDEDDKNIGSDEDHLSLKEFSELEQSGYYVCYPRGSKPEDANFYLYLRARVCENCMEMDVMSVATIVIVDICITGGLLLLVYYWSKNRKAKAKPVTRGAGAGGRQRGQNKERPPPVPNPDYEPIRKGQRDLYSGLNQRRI
T3 sequence (P04234 22-171 limits assumed, chain 2 of 3): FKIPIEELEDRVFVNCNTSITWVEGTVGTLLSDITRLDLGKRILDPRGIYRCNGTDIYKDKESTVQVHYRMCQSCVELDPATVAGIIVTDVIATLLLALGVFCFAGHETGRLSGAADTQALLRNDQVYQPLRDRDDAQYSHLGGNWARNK
T3 sequence (P09693 23-182 limits assumed, chain 3 of 3): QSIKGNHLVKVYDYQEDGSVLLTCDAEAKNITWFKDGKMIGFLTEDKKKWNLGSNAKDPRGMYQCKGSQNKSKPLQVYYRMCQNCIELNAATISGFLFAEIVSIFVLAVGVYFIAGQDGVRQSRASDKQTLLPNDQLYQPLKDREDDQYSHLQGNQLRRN

| Binder | CD25/CD4 EC50(nM), activation of T cells in the presence of MM.1S [nM] | CD25/CD8 EC50(nM), activation of T cells in the presence of MM.1S [nM] | CD69/CD4 EC50(nM), activation of T cells in the presence of MM.1S [nM] | CD69/CD8 EC50(nM), activation of T cells in the presence of MM.1S [nM] |
| --- | --- | --- | --- | --- |
| B1 | 0.0637 | 0.0592 | 0.046 | 0.0329 |

biological target: T4, GPRC5C (human, UniProt Q9NQ84 24-441); experiment: FACS on CHO-K1-GPRC5C cells
T4 construct: Full length on CHO-K1 cells; also called RAIG3; Human GPRC5C
T4 sequence (Q9NQ84 24-441 limits assumed): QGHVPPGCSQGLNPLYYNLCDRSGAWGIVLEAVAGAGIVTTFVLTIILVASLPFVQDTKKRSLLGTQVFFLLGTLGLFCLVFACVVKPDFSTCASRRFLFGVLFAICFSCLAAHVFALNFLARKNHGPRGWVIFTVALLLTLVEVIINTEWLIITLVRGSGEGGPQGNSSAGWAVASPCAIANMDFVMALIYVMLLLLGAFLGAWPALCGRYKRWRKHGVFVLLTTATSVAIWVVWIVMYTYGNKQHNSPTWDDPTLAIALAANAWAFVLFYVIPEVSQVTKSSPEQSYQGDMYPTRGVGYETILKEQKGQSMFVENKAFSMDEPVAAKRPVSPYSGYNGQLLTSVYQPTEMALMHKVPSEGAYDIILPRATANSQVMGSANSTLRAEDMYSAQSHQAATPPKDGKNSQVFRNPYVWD

| Binder | binding result |
| --- | --- |
| B2 | no binding (tested: 4.1-3000 ng/mL) |
| B3 | no binding (tested: 4.1-3000 ng/mL) |
| B4 | no binding (tested: 4.1-3000 ng/mL) |
| B5 | no binding (tested: 4.1-3000 ng/mL) |
| B6 | no binding (tested: 4.1-3000 ng/mL) |

biological target: T5, GPRC5A (human, UniProt Q8NFJ5 1-357); experiment: FACS on CHO-K1-GPRC5A cells
T5 construct: Full length on CHO-K1 cells; also called RAIG1; Human GPRC5A
T5 sequence (Q8NFJ5 whole entry): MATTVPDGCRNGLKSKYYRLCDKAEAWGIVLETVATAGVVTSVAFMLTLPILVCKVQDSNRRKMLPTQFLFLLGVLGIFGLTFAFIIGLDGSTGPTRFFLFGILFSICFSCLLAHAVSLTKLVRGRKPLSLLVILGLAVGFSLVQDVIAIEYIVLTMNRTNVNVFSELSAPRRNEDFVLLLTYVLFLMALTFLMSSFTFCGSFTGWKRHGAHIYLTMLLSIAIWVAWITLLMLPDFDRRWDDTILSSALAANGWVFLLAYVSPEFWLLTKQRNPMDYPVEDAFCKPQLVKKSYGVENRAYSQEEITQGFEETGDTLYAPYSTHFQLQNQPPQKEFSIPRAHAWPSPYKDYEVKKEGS

| Binder | binding result |
| --- | --- |
| B2 | no binding (tested: 4.1-3000 ng/mL) |
| B3 | no binding (tested: 4.1-3000 ng/mL) |
| B4 | no binding (tested: 4.1-3000 ng/mL) |
| B5 | no binding (tested: 4.1-3000 ng/mL) |
| B6 | no binding (tested: 4.1-3000 ng/mL) |

Biological target: T1, monkey GPRC5D
Experiment: FACS on CHO-K1-cynoGPRC5D cells

| Binder | binding result |
| --- | --- |
| B2 | binds |
| B3 | binds |
| B4 | binds |
| B5 | binds |
| B6 | binds |

biological target: T6, GPRC5B (human, UniProt Q9NZH0 29-403); experiment: FACS on CHO-K1-GPRC5B cells
T6 construct: Full length on CHO-K1 cells; also called RAIG2; Human GPRC5B
T6 sequence (Q9NZH0 29-403 limits assumed): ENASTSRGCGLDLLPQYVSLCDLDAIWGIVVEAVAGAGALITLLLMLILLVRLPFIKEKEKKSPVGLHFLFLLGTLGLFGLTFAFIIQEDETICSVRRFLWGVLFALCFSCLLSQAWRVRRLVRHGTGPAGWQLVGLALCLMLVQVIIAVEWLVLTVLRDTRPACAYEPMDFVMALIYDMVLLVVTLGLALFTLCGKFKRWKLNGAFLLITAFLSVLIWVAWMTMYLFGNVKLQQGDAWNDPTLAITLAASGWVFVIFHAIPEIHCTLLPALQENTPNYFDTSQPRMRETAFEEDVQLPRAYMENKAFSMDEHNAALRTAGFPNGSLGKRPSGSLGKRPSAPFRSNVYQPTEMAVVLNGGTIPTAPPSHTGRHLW

| Binder | binding result |
| --- | --- |
| B2 | no binding (tested: 4.1-3000 ng/mL) |
| B3 | no binding (tested: 4.1-3000 ng/mL) |
| B4 | no binding (tested: 4.1-3000 ng/mL) |
| B5 | no binding (tested: 4.1-3000 ng/mL) |
| B6 | no binding (tested: 4.1-3000 ng/mL) |

biological target: T3, T cell surface CD3; experiment: FACS on human CD3+ T cells

| Binder | EC50 [nM] | Top(MFI) |
| --- | --- | --- |
| B1 | 5.35 | 155000 |

biological target: T2, mouse GPRC5D; experiment: FACS on CHO-K1-murineGPRC5D cells

| Binder | binding result |
| --- | --- |
| B2 | binds |
| B4 | binds |
| B5 | binds |
| B6 | binds |

biological target: T7, human GPRC5D protein (human, UniProt Q9NZD1 1-345); experiment: FACS on CHO-K1-hGPRC5D^hi cells
T7 construct: also called hGPRC5D; CHO-K1-hGPRC5D^hi
T7 sequence (Q9NZD1 whole entry): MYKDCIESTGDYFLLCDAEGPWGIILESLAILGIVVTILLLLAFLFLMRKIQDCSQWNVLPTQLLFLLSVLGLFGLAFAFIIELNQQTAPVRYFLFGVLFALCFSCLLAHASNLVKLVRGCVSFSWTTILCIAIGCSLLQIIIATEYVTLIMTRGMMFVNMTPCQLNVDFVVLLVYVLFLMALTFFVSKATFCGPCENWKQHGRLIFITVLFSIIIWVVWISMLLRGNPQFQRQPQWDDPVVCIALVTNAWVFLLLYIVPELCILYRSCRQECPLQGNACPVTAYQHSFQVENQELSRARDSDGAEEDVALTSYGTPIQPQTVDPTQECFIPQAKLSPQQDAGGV

| Binder | binding result |
| --- | --- |
| B2 | binds |
| B3 | binds |
| B4 | binds |
| B5 | binds |
| B6 | binds |

biological target: T7, human GPRC5D protein; experiment: FACS on NCI-H929 cells

| Binder | binding result |
| --- | --- |
| B7 | binds |
| B8 | binds |
| B9 | binds |
| B10 | binds |
| B11 | binds |
